The target of the assay is T1, Schizosaccharomyces pombe TFIIB (S. pombe, UniProt O13749 1-340).
T1 construct: General transcription factor TFIIB of S. pombe (sua7), 340 aa as printed; also called SpIIB; fission yeast TFIIB
T1 sequence (looked up): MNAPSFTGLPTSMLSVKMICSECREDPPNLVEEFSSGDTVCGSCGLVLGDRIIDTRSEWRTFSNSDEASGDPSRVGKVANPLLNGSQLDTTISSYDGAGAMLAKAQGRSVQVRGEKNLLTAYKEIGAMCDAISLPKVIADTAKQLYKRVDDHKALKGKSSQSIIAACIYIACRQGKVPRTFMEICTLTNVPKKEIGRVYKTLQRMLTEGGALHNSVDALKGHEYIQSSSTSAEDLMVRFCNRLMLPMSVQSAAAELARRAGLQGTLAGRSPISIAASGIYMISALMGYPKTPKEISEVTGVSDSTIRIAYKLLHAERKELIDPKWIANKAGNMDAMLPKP
Description: native gel or EMSA; TBP and TFIIB (20 ng each) on 32P-labelled Ad-MLP TATA box probe; 20 mM HEPES pH 7.9, 50 mM KCl, 5 mM MgCl2, 5% glycerol; 15 min at 30 °C; 5% polyacrylamide gel at 4 °C. The settings on record: both partners purified. A general note: In EMSA bound probe runs differently from free probe, usually more slowly.

B1: Schizosaccharomyces pombe TATA-binding protein (natural protein, S. pombe, UniProt P17871 1-231, looked up)
chain: MDFALPTTASQASAFMNNSSLTFPVLPNANNEATNETADSGDAEVSKNEGVSGIVPTLQNIVATVNLDCRLDLKTIALHARNAEYNPKRFAAVIMRIREPKSTALIFASGKMVVLGGKSEDDSKLASRKYARIIQKLGFNAKFTDFKIQNIVGSCDVKFPIRLEGLAYSHGTFSSYEPELFPGLIYRMVKPKVVLLIFVSGKIVLTGAKVREEIYQAFEAIYPVLSEFRKH
notes: also called TBP; fission yeast TBP
Turning to B1, the binding result is recorded as “binds”.
